In test [1] the target is CXCR4(D187C)-T4L (UniProt P61073). The test is described as follows: cross-linking + pull-down; disulfide cross-linking: Cys mutants co-expressed in Sf9 cells; membranes solubilised in DDM/CHS; TALON metal affinity pull-down by the receptor His tag; non-reducing SDS-PAGE and Western blot (anti-Flag, anti-HA); IR800 signal relative to CXCR4(D187C)-vMIP-II(W5C) set to 100%. For orientation: In western blotting, separated proteins are transferred to a membrane and probed.

The target of test [2] is HA-CXCR4(D20R)-Rluc3 (UniProt P61073).

For vMIP-II(W5C) (ligand), the fraction of extracted receptor cross-linked in test [1] was 100%.
In the case of “CXCL12(R47E) (from UniProt P48061-2 22-89) (ligand)”, the β-arrestin-2 recruitment to HA-CXCR4-Rluc3 (BRET2, HEK293T cells), pEC50 in test [2] was 5.89 -log10(EC50).

These data come from publication PMC7173943.
